The values that follow come from paper PMC9671094.

The target in experiment [1] is ApexGT2.2MUT trimer (HIV-1 isolate BG505). The experiment is described as follows: cryo-EM structure.
The target in experiment [2] is PG16 (human). Put plainly: SPR; IgG captured as ligand by anti-human IgG (Human Antibody Capture Kit) on a GLC chip, ProteOn XPR36; trimer as analyte; 1x HBS-EP+ pH 7.4 with 1 mg/ml BSA; 1:1 binding model; highest SOSIP concentration 5 uM or 10 uM.
In experiment [3] the target is PG16.VHVL (human). The description is as above.
Experiment [4] has as its target PG9.HCDR3.1MUT (human). Described as above.
Experiment [5] concerns the target PG9.iGL.1MUT (human). The experiment is described as above.
In experiment [6] the target is PG9 (human). The experiment is described as above.
For experiment [7], the target named is PG16.HCDR3 + 1MUT (human). The description is as above.
Experiment [8] deals with PG16.iGL (human). The description is as above.
The target of experiment [9] is PG9.VHVL (human). The experiment is described as above.
Experiment [10] addresses PCT64.iGL (human). The experiment is described as above.

pKd: −log10 of the molar value. Some results are limits rather than exact numbers.

In experiment [1], PCT64 LMCA Fab showed a stoichiometry N (Fab per trimer) of 1.

On to BG505 SOSIP.D664 (complex), for which the pKd was 7.42 in [2]; 6.00 in experiment [3]; 6.50 in experiment [4]; 6.19 in [5]; 7.80 in experiment [6]; 6.56 in experiment [7]. Moreover, the negative logarithm of the Kd (pKd) in experiment [8] is below 5.30; in [9] it was 7.14; in [10] it was below 5.30.
